This note sets out measurements from patent US20250186614A1, “COMPACT DRUG RESPONSIVE DOMAINS FOR REGULATION OF FUNCTION/ABUNDANCE AND DELIVERY OF POLYPEPTIDE PAYLOADS” (OBSIDIAN THERAPEUTICS, INC., priority 2022, published 2025).

B1: FKBP-061: FKBP13 DRD Q72R, Q84E, A117H, L133A; SEQ ID NO: 17 (protein)
chain: HCPIKSRKGDVLHMHYTGKLEDGTEFDSSLPRNQPFVFSLGTGEVIKGWDQGLLGMCEGEKRKLVIPSELGYGERGHPPKIPGGATLVFEVEALKIER
modifications: Description of sequence: FKBP13-AcGFP-mCherry Fusion; Construct Name: FKBP-061; FKBP13 DRD in Construct : FKBP13 (mutated to match FKBP12 active site - Q72R Q84E A117H) (DRD - L133A)
B2: FKBP-064: FKBP13 DRD Q72R, Q84E, A117H, R102L; SEQ ID NO: 20 (protein)
chain: HCPIKSRKGDVLHMHYTGKLEDGTEFDSSLPRNQPFVFSLGTGEVIKGWDQGLLGMCEGEKLKLVIPSELGYGERGHPPKIPGGATLVFEVELLKIER
modifications: Description of sequence: FKBP13-AcGFP-mCherry Fusion; Construct Name: FKBP-064; FKBP13 DRD in Construct : FKBP13 (mutated to match FKBP12 active site - Q72R Q84E A117H) (DRD - R102L)
B3: FKBP-085: FKBP13 trunc1WT DRD Q72R, Q84E, A117H; SEQ ID NO: 35 (protein)
chain: CPIKSRKGDVLHMHYTGKLEDGTEFDSSLPRNQPFVFSLGTGEVIKGWDQGLLGMCEGEKRKLVIPSELGYGERGHPPKIPGGATLVFEVELLKIER
modifications: truncated (trunc1); Description of sequence: FKBP13-AcGFP-mCherry Fusion; Construct Name: FKBP-085; FKBP13 DRD in Construct : FKBP13 trunc1WT (mutated to match FKBP12 active site Q72R Q84E A117H) (DRD - WT)
B4: FKBP-084: FKBP13 trunc2 DRD Q72R, Q84E, A117H, M54A; SEQ ID NO: 34 (protein)
chain: PIKSRKGDVLHAHYTGKLEDGTEFDSSLPRNQPFVFSLGTGEVIKGWDQGLLGMCEGEKRKLVIPSELGYGERGHPPKIPGGATLVFEVELLKIER
modifications: truncated (trunc2); Description of sequence: FKBP13-AcGFP-mCherry Fusion; Construct Name: FKBP-084; FKBP13 DRD in Construct : FKBP13 trunc2 (mutated to match FKBP12 active site Q72R Q84E A117H) (DRD - M54A)
B5: FKBP-097: FKBP13 DRD Q72R, Q84E, A117H, E100S; SEQ ID NO: 47 (protein)
chain: HCPIKSRKGDVLHMHYTGKLEDGTEFDSSLPRNQPFVFSLGTGEVIKGWDQGLLGMCEGSKRKLVIPSELGYGERGHPPKIPGGATLVFEVELLKIER
modifications: Description of sequence: FKBP13-AcGFP-mCherry Fusion; Construct Name: FKBP-097; FKBP13 DRD in Construct : FKBP13 (mutated to match FKBP12 active site Q72R Q84E A117H) (DRD - E100S)
B6: FKBP-094: FKBP13 DRD Q72R, Q84E, A117H, P107S; SEQ ID NO: 44 (protein)
chain: HCPIKSRKGDVLHMHYTGKLEDGTEFDSSLPRNQPFVFSLGTGEVIKGWDQGLLGMCEGEKRKLVISSELGYGERGHPPKIPGGATLVFEVELLKIER
modifications: Description of sequence: FKBP13-AcGFP-mCherry Fusion; Construct Name: FKBP-094; FKBP13 DRD in Construct : FKBP13 (mutated to match FKBP12 active site Q72R Q84E A117H) (DRD - P107S)
B7: FKBP-095: FKBP13 DRD Q72R, Q84E, A117H, P122S; SEQ ID NO: 45 (protein)
chain: HCPIKSRKGDVLHMHYTGKLEDGTEFDSSLPRNQPFVFSLGTGEVIKGWDQGLLGMCEGEKRKLVIPSELGYGERGHPPKISGGATLVFEVELLKIER
modifications: Description of sequence: FKBP13-AcGFP-mCherry Fusion; Construct Name: FKBP-095; FKBP13 DRD in Construct : FKBP13 (mutated to match FKBP12 active site Q72R Q84E A117H) (DRD - P122S)
B8: FKBP-123: FKBP13 DRD Q72R, Q84E, A117W, G49S; SEQ ID NO: 73 (protein)
chain: HCPIKSRKSDVLHMHYTGKLEDGTEFDSSLPRNQPFVFSLGTGEVIKGWDQGLLGMCEGEKRKLVIPSELGYGERGWPPKIPGGATLVFEVELLKIER
modifications: Description of sequence: FKBP13-AcGFP-mCherry Fusion; Construct Name: FKBP-123; FKBP13 DRD in Construct : FKBP13 (mutated to match FKBP12 active site Q72R Q84E A117W) (DRD G49S)
B9: FKBP-124: FKBP13 DRD Q72R, Q84E, A117H, G49S; SEQ ID NO: 74 (protein)
chain: HCPIKSRKSDVLHMHYTGKLEDGTEFDSSLPRNQPFVFSLGTGEVIKGWDQGLLGMCEGEKRKLVIPSELGYGERGHPPKIPGGATLVFEVELLKIER
modifications: Description of sequence: FKBP13-AcGFP-mCherry Fusion; Construct Name: FKBP-124; FKBP13 DRD in Construct : FKBP13 (mutated to match FKBP12 active site Q72R Q84E A117H) (DRD G49S)
B10: FKBP-122: FKBP13 DRD Q72R, Q84E, A117H, I136V; SEQ ID NO: 72 (protein)
chain: HCPIKSRKGDVLHMHYTGKLEDGTEFDSSLPRNQPFVFSLGTGEVIKGWDQGLLGMCEGEKRKLVIPSELGYGERGHPPKIPGGATLVFEVELLKVER
modifications: Description of sequence: FKBP13-AcGFP-mCherry Fusion; Construct Name: FKBP-122; FKBP13 DRD in Construct : FKBP13 (mutated to match FKBP12 active site Q72R Q84E A117H) (DRD I136V)
B11: FKBP-121: FKBP13 DRD Q72R, Q84E, A117W, I136V; SEQ ID NO: 71 (protein)
chain: HCPIKSRKGDVLHMHYTGKLEDGTEFDSSLPRNQPFVFSLGTGEVIKGWDQGLLGMCEGEKRKLVIPSELGYGERGWPPKIPGGATLVFEVELLKVER
modifications: Description of sequence: FKBP13-AcGFP-mCherry Fusion; Construct Name: FKBP-121; FKBP13 DRD in Construct : FKBP13 (mutated to match FKBP12 active site Q72R Q84E A117W) (DRD I136V)

The subject of one test is Jurkat cells. Briefly: Tacrolimus dose response of FKBP13-AcGFP-mCherry constructs stably transduced into Jurkat cells, GFP MFI by flow cytometry. The test is classed as cell-based. To be noted: tacrolimus dose response, Jurkat cells stably transduced (FIG. 4); Table 4. How it is done: The regulation of AcGFP, from FKBP13-AcGFP-mCherry constructs, in Jurkat cells, was also studied. Jurkat Clone E6-1 cells were cultured in standard media (RPMI+GlutaMAX Supplement (Life Technologies, Carlsbad, CA Cat #61870127), Fetal Bovine Serum (FBS) (Life Technologies Cat #10-082-147)). Jurkat cells were transduced with lentivirus produced with each of FKBP-039, FKBP-040, FKBP-041, FKBP-042, FKBP-043, FKBP-044, or FKBP-045 constructs. Jurkat cells were transduced until they were 10-25% positive, as determined on day 5 post-transduction, by using mCherry as a transduction marker. […] The Geometric Mean Fluorescent Intensity (MFI) of GFP expression in mCherry+ cells was plotted and dose response curve fits were performed using Prism Software (San Diego, CA).
FKBP-091 was used as a comparative construct.
FIGS. 22-38 show the results of characterization of FKBP-160-292. […] FKBP-091 and FKBP-117 was used as a comparative control for FKBP-160-FKBP-255. FKBP-195 was used as a comparative control for FKBP-256-FKBP-275. FKBP-117, FPBP-195 and FKBP-251 were used as a comparative control for FKBP-276-FKBP-292.
FKBP mutants were cloned in a manner to make a fusion protein with AcGFP in order to assess FKBP mutant regulation by using AcGFP expression as a readout. […] Further iterative FKBP mutants (FKBP-256-FKBP-292) were constructed from these initial combinatorial mutants to see if we could further improve FKBP DRD properties.
For B1, the Fold Change stood at 16.6.
Still for that read-out and setting: the figure for B2 is 21.6.

The same test, now with this note: tacrolimus dose response, Jurkat cells stably transduced (FIG. 10); Table 5.
For the molecule B3, the “Fold Change” value was found to be 16.09.
On the same count and under the same terms, for B4 the value was 12.42.
Same read-out and setting: for B5 the value was 36.75; for B6, 13.5.
The same measure, in the same setting: the figure for B7 is 31.4.

The same test, now with this note: tacrolimus, Jurkat cells stably transduced; Table 6.
For B8, the “Fold Change” value turned out to be 48.38.
Same read-out and setting: the figure for B9 is 40.13; for B10 it is 22.51; for B11 it is 28.35.
